From patent US20230159643A1 (H LUNDBECK A S, published 2023)

T1: human wild type Sortilin on S18-HEK cells (human, UniProt Q99523 78-831)
T1 sequence: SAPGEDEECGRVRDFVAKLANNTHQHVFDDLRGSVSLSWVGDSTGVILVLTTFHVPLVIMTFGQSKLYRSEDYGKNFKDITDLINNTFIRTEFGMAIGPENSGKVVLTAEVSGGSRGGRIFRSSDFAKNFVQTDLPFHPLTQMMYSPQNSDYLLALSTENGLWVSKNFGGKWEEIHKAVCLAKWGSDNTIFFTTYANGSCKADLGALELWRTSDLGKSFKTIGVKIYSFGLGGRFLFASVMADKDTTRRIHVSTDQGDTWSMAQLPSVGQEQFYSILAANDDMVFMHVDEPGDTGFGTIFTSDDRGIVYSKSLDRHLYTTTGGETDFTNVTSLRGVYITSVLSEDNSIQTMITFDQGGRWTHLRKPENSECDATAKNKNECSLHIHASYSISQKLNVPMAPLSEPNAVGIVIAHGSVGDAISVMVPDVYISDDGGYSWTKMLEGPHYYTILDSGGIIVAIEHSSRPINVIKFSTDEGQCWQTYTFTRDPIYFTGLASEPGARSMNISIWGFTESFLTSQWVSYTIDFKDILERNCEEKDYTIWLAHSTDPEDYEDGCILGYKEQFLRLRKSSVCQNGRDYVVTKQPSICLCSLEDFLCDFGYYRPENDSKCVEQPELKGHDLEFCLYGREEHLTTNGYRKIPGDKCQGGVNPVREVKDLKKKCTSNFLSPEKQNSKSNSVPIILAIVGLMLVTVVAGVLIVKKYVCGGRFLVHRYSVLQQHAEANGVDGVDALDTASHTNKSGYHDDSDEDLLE


Target: T1, human wild type Sortilin on S18-HEK …
Experiment: cell-based or functional assay

Binder	extracellular PGRN in medium of Sortilin over-expressing HEK cells (ELISA), % of untreated control
044 (antibody, V domains shown) VH: EVQLLESGGGLVQPGGSLRLSCAASGFTFSSYAMSWVRQAPGKGLEWVSAISGSGGNTYYADSVKGRSTISRDNSKNTLYLQMNSLRAEDTAVYYCASMVRGVFINFDYWGQGTLVTVSS VL: not shown	166%
1276 (antibody, V domains shown) VH: EVQLLESGGGLVQPGGSLRLSCAASGFTFNTFAMNWVRQAPGKGLEWVSAITGSGGSTYYADSVKGRFTISRDNSKNTLYLQMNSLRAEDTAVYYCATPITVVRGVSAFDIWGQGTMVTVSS VL: not shown	163%
531 (antibody, V domains shown) VH: EVQLLESGGGLVQPGGSLRLSCAASGFTFSRYVMSWVRQAPGKGLEWVSTISGSGGSTYYADSVKGRFTISRDNSKNTLFLQMNSLRAEDTAVYYCAEGAFGAFDIWGQGTMVTVSS VL: not shown	140%
093-01 (antibody, V domains shown) VH: VVQLLESGGGLVQPGGSLRLSCAASGFTFSSYAMSWVRQAPGKGLEWVSAISGSGGSTYYADSVKGRFTISRDNSMHTLFLQINSLRAEDTAVYYCVAIAAAGTNYFDYWGQGTLVTVSS VL: not shown	116%
093-05 (antibody, V domains shown) VH: VVQLLESGGGLVQPGGSLRLSCAASGFTFSSYAMSWVRQAPGKGLEWVSAISGSGGSTYYADSVKGRFTISRDNSMHTLFLQINSLRAEDTAVYYCVAIAAAGTNYFDYWGQGTLVTVSS VL: not shown	140%
088 (antibody, V domains shown) VH: EVQLLESGGGLVQPGGSLRLSCAASGFTFSTFAMSWVRQAPGKGLEWVSAISGSGGGTYYADSVKGRFTISRDNSKNTLYLQMNSLRAEDTAVYYCATYIVATIADAFDIWGQGTMVTVSS VL: not shown	121%
562 (antibody, V domains shown) VH: EVQLLESGGGLVQPGGSLRLSCAASGFTFSTFAMSWVRQAPGKGLEWVSAISGSGGSTYYADSVKGRFTISRDNSENTLYLQMNSLRAEDTAVYYCASPITVVRGEAFDIWGQGTMVTVSS VL: not shown	139%

Other lines, results leading:

extracellular PGRN in medium of Sortilin over-expressing HEK cells (ELISA), % of untreated control	Binder
117%	1289 (antibody, V domains shown) VH: EVQLLESGGGLVQPGGSLRLSCAASGFTFSSFAMSWVRQAPGKGLEWVSAISGSGGSTYYADSVKGRFTISRDNSKNTLSLQMNSLRAEDTAVYYCATPITLVRGVGAFDIWGQGTMVTVSS VL: not shown
125%	924 (antibody, V domains shown) VH: QVQLQESGPGLVKPSQTLSLTCTVSGGSISSGNYYWNWIRQHPGKGLEWIGYIYYSGSTYYNPSLKSRVTISVDTSKNQFSLKLNSVTSADTAVYYCAALITSQNFFFDYWGQGTLVTVSS VL: not shown
149%	849 (antibody, V domains shown) VH: EVQLLESGGGLVQPGGSLRLSCAASGFTFNTFAMNWVRQAPGKGLEWVSAISGSGGSTYYADSVKGRFTISRDNSKNTLYLQMNSLRAEDTAVYYCAALVRGVRDAFDIWGQGTMVTVSS VL: not shown
139%	566 (antibody, V domains shown) VH: EVQLLESGGGLVQPGGSLRLSCVASGFTFSTFAMSWVRQAPGKGLEWVSAISGSGGSTYYADSVRGRFTVSRDNSKNTLYLQMNSLRAEDTAVYYCASPITMVRGEAFDIWGQGTMVTVSS VL: not shown
